13 molecules from patent US20150166627A1 (Sanofi, published 2015) can be followed below.

Non-standard residues stand in square brackets, D forms with d. No end group written: not given here. Met(O2) = CS(=O)(=O)CC[C@H](N)C(=O)O; d(αMeK) = C[C@@](N)(CCCCN)C(=O)O; Met(O) = CS(=O)CC[C@H](N)C(=O)O; αMeOrn = C[C@](N)(CCCN)C(=O)O; αMeK = C[C@](N)(CCCCN)C(=O)O; Nle = CCCC[C@H](N)C(=O)O; Aib = CC(C)(N)C(=O)O

In one test the target is T1, human GLP-1 receptor (human, UniProt P43220 24-463). Kind of test: cell-based or functional assay.
Target sequence in this assay (P43220 24-463): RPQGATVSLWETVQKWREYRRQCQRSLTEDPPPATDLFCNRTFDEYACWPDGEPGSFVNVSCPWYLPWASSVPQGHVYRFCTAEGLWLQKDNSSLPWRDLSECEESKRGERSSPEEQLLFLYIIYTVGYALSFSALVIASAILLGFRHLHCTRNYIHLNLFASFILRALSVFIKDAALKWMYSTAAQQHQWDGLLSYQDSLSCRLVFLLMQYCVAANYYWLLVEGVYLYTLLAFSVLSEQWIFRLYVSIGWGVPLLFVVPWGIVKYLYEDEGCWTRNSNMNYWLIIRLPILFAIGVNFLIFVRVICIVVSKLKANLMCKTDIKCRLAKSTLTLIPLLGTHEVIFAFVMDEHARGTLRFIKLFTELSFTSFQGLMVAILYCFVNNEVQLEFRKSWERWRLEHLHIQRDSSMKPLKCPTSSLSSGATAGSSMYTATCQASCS
For the molecule YAEGTFTSDVSIYLEGQAAKEFIAWLVKGR (ends and bridges not checked) [Tyr(1)Ile(12)-GLP1], the “EC50 hGLP-1 R [pM], cAMP formation” value was 5 pM.

The target in another test is T2, human GIP receptor (human, UniProt P48546 22-466).
T2 sequence (looked up): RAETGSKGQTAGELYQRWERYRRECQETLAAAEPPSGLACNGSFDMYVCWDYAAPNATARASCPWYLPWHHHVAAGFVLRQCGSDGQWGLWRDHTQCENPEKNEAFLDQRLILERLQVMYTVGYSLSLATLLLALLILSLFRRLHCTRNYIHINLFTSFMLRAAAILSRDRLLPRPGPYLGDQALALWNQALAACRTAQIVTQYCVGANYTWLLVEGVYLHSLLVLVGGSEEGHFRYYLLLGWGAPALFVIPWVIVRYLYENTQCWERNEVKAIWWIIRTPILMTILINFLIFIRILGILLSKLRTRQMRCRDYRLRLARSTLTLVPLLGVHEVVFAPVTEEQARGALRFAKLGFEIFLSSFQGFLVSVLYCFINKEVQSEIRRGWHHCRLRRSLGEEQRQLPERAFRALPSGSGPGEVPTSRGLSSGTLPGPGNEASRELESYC
Kind of test: cell-based or functional assay.
For YAEGTFTSDVSIYLEGQAAKEFIAWLVKGR (ends and bridges not checked) [Tyr(1)Ile(12)-GLP1], the “EC50 hGIP R [pM], cAMP formation” value was 3660 pM.

Another test has as its target T1, human GLP-1 receptor. Kind of test: cell-based or functional assay. The source holds these as a separate data set.
Turning to Y[Aib]EGTFTSDLSIQLEEEAV[d(αMeK)]LFIEWLKAGGPSSGAPPPS-NH2 [SEQ ID NO: 18], the “EC50 hGLP-1 R [pM], cAMP formation” value worked out at 2 pM.
Regarding Y[Aib]EGTFTSDLSIQ[Met(O)]EKEAVRLFIEWLKAGGPSSGAPPPS-NH2 [SEQ ID NO: 13], the “EC50 hGLP-1 R [pM], cAMP formation” value was 0.4 pM.
Take Y[Aib]EGTFTSDLSIQLEEEAV[αMeK]LFIEWLKAGGPSSGAPPPS-NH2 [SEQ ID NO: 17]: the “EC50 hGLP-1 R [pM], cAMP formation” value came out at 1.1 pM.
Y[Aib]EGTFTSDLSIQMEKEAVRLFIEWLKAGGPSSGAPPPS-NH2 [SEQ ID NO: 9]: the “EC50 hGLP-1 R [pM], cAMP formation” value was 1.1 pM.
On the same count and under the same terms, for Y[Aib]EGTFTSDLSIQLEKEAVRLFIEWLKAGGPSSGAPPPS-NH2 [SEQ ID NO: 20] the value was 1 pM; for Y[Aib]EGTFTSDLSIQLEEEAVRLFIEWLKAGGPSSGAPPPS-NH2 [SEQ ID NO: 15], 1.4 pM; for Y[Aib]EGTFTSDLSIQ[Met(O2)]EKEAVRLFIEWLKAGGPSSGAPPPS-NH2 [SEQ ID NO: 14], 0.6 pM.
The same measure, in the same setting: then Y[Aib]EGTFTSDLSIQLEEEAV[Aib]LFIEWLKAGGPSSGAPPPS-NH2 [SEQ ID NO: 16], with 1 pM.

The next test deals with T2, human GIP receptor. Description: cell-based or functional assay. The source holds these as a separate data set.
For YXEGTFTSDLSIQMEEEAVRLFIEWLKAGGPSSGAPPPS (Aib at position 2; C-terminal amide (-NH2)) [SEQ ID NO: 8], the “EC50 hGIP R [pM], cAMP formation” value came out at 9.8 pM.
In the case of Y[Aib]EGTFTSDLSIQLEEEAV[d(αMeK)]LFIEWLKAGGPSSGAPPPS-NH2 [SEQ ID NO: 18], the “EC50 hGIP R [pM], cAMP formation” value was 36.1 pM.
The same measure, in the same setting: then Y[Aib]EGTFTSDLSIQ[Nle]EKEAVRLFIEWLKAGGPSSGAPPPSK-NH2 [SEQ ID NO: 12], with 8.7 pM.
On to Y[Aib]EGTFTSDLSIQ[Met(O)]EKEAVRLFIEWLKAGGPSSGAPPPS-NH2 [SEQ ID NO: 13], for which the “EC50 hGIP R [pM], cAMP formation” value turned out to be 8.1 pM.
Same read-out and setting: for Y[Aib]EGTFTSDLSIQLEEEAV[αMeK]LFIEWLKAGGPSSGAPPPS-NH2 [SEQ ID NO: 17] the value was 1.8 pM.
As for Y[Aib]EGTFTSDLSIQMEKEAVRLFIEWLKAGGPSSGAPPPS-NH2 [SEQ ID NO: 9], the “EC50 hGIP R [pM], cAMP formation” value was determined as 3.1 pM.
Y[Aib]EGTFTSDLSIQLEEEAV[αMeOrn]LFIEWLKAGGPSSGAPPPS-NH2 [SEQ ID NO: 19]: the “EC50 hGIP R [pM], cAMP formation” value is 2.2 pM.
In the case of Y[Aib]EGTFTSDLSIQLEKEAVRLFIEWLKAGGPSSGAPPPS-NH2 [SEQ ID NO: 20], the “EC50 hGIP R [pM], cAMP formation” value stood at 3.9 pM.
Still for that read-out and setting: then Y[Aib]EGTFTSDLSIQLEEEAVRLFIEWLKAGGPSSGAPPPS-NH2 [SEQ ID NO: 15], with 7.3 pM.
In the case of Y[Aib]EGTFTSDLSIQLEKEAVRLFIEWLKAGGPSSGAPPPS-NH2 [SEQ ID NO: 10], the “EC50 hGIP R [pM], cAMP formation” value is 6.8 pM.
Still for that read-out and setting: for Y[Aib]EGTFTSDLSIQ[Met(O2)]EKEAVRLFIEWLKAGGPSSGAPPPS-NH2 [SEQ ID NO: 14] the value was 4.1 pM; for Y[Aib]EGTFTSDLSIQLEEEAV[Aib]LFIEWLKAGGPSSGAPPPS-NH2 [SEQ ID NO: 16], 1.5 pM.

The next test deals with human glucagon receptor (human, UniProt P47871 26-477). Kind of test: cell-based or functional assay.
Chain of human glucagon receptor (P47871 26-477): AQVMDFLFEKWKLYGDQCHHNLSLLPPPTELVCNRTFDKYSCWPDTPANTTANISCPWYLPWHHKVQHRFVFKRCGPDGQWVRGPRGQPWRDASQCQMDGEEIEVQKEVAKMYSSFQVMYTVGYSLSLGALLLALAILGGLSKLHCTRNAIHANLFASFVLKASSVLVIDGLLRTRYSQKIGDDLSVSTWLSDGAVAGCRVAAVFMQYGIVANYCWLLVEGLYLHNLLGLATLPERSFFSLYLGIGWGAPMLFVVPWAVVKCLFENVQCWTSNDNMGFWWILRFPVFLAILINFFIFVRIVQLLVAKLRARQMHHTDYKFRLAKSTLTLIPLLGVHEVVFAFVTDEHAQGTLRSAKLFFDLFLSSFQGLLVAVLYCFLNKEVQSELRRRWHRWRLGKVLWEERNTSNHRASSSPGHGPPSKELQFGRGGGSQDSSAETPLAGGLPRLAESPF
In the case of YXEGTFTSDLSIQMEEEAVRLFIEWLKAGGPSSGAPPPS (Aib at position 2; C-terminal amide (-NH2)) [SEQ ID NO: 8], the “EC50 hGLUC R [pM], cAMP formation” value was above 1e+06 pM.
Regarding Y[Aib]EGTFTSDLSIQLEEEAV[d(αMeK)]LFIEWLKAGGPSSGAPPPS-NH2 [SEQ ID NO: 18], the “EC50 hGLUC R [pM], cAMP formation” value was above 1e+06 pM.
The same measure, in the same setting: then Y[Aib]EGTFTSDLSIQ[Nle]EKEAVRLFIEWLKAGGPSSGAPPPSK-NH2 [SEQ ID NO: 12], with above 1e+06 pM.
With Y[Aib]EGTFTSDLSIQ[Met(O)]EKEAVRLFIEWLKAGGPSSGAPPPS-NH2 [SEQ ID NO: 13], the “EC50 hGLUC R [pM], cAMP formation” value was above 1e+06 pM.
Same read-out and setting: then Y[Aib]EGTFTSDLSIQLEEEAV[αMeK]LFIEWLKAGGPSSGAPPPS-NH2 [SEQ ID NO: 17], with above 1e+06 pM; and Y[Aib]EGTFTSDLSIQMEKEAVRLFIEWLKAGGPSSGAPPPS-NH2 [SEQ ID NO: 9], with above 1e+06 pM.
Same read-out and setting: then Y[Aib]EGTFTSDLSIQLEEEAV[αMeOrn]LFIEWLKAGGPSSGAPPPS-NH2 [SEQ ID NO: 19], with above 1e+06 pM; and Y[Aib]EGTFTSDLSIQLEKEAVRLFIEWLKAGGPSSGAPPPS-NH2 [SEQ ID NO: 20], with above 1e+06 pM.
As to Y[Aib]EGTFTSDLSIQLEEEAVRLFIEWLKAGGPSSGAPPPS-NH2 [SEQ ID NO: 15], the “EC50 hGLUC R [pM], cAMP formation” value is above 1e+06 pM.
Turning to Y[Aib]EGTFTSDLSIQLEKEAVRLFIEWLKAGGPSSGAPPPS-NH2 [SEQ ID NO: 10], the “EC50 hGLUC R [pM], cAMP formation” value is above 1e+06 pM.
Take Y[Aib]EGTFTSDLSIQ[Met(O2)]EKEAVRLFIEWLKAGGPSSGAPPPS-NH2 [SEQ ID NO: 14]: the “EC50 hGLUC R [pM], cAMP formation” value is above 1e+06 pM.
Same read-out and setting: then Y[Aib]EGTFTSDLSIQLEEEAV[Aib]LFIEWLKAGGPSSGAPPPS-NH2 [SEQ ID NO: 16], with above 1e+06 pM.
